One experiment concerns the target human MASP-1 (human) (UniProt P48740). Description: cell-based or functional assay.
The next experiment has as its target human MASP-2 (human) (UniProt O00187). As to the kind of experiment: cell-based or functional assay.

human MASP-2 (human), sequence (O00187 16-686): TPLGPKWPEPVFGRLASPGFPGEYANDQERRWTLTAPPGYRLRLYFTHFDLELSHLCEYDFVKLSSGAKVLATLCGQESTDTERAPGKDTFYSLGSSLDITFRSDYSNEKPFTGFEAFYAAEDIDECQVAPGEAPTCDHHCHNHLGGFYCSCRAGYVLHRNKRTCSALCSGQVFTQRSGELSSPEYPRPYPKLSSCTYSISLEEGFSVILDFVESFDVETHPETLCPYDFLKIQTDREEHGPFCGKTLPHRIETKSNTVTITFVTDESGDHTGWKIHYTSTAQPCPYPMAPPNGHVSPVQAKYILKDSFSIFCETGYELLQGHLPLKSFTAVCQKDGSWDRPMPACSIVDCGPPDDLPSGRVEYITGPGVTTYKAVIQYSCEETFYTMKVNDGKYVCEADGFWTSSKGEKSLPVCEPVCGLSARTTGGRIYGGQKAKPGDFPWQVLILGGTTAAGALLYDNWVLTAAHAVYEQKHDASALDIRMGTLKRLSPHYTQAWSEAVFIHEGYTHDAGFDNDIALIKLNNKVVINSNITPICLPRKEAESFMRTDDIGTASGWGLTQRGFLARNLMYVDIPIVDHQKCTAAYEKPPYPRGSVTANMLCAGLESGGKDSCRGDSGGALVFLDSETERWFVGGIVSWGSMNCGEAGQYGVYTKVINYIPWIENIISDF
human MASP-1 (human), sequence (P48740 other isoform, or with tags, fused parts or gaps): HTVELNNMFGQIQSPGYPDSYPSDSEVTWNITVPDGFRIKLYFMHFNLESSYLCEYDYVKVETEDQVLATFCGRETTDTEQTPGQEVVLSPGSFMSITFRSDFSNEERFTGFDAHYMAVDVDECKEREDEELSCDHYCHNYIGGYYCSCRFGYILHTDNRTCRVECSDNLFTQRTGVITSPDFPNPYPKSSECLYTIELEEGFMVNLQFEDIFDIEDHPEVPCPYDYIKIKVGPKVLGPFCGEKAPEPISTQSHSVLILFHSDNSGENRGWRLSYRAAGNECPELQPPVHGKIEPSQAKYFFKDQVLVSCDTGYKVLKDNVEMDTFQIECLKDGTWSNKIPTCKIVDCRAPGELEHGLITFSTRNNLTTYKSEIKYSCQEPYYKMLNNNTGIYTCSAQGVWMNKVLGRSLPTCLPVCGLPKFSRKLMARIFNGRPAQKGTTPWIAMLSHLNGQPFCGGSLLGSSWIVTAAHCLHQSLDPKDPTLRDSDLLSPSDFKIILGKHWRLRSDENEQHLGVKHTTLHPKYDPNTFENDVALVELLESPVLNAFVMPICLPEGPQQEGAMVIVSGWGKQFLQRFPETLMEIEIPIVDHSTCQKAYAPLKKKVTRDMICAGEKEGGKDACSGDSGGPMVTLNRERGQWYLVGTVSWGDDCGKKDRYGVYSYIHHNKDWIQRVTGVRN

On to “SGMI-1Fc, mature polypeptide fusion comprising SGMI-1, linker and human IgG1-Fc (Fc fusion)”, for which, in the experiment with human MASP-1 (human), the C3b deposition from 1% normal human serum on mannan (IC50) worked out at 27 nM. Turning to “SGMI-2Fc, mature polypeptide fusion comprising SGMI-2, linker and human IgG1-Fc (Fc fusion)”, the C3b deposition from 1% normal human serum on mannan (IC50) with human MASP-2 (human) came out at 300 nM.

The values above are taken from US20130344073A1.
